Test results as given in patent US20210395379A1 (NUMAB THERAPEUTICS, published 2021).
Values belong to the binder of their own block, whether it stands above or below them.

Legend:
[1] = target: T1, Fc tagged human CD137 (R&D Systems, cat. 838-4B-100) (human, UniProt Q07011 24-186); experiment: SPR (Biacore T200), CD137-Fc captured by anti-human Fc, molecule as analyte 0.18-45 nM
T1 construct: Bought Fc chimera; also called CD137 Fc chimera; human CD137 (tagged with Fc); not shown: Fc tag of the bought chimera
Method: (§1) Affinity to PDL1 was determined by SPR measurements using a Biacore T200 device (GE Healthcare). In this experiment, Fc tagged PDL1 from different species was captured using the Human Antibody Capture kit from GE Healthcare (cat. BR-1008-39). After each analyte injection cycle, the anti-human Fc-specific IgG was regenerated and new antigen was captured. For all formats, the multispecific molecules were injected as analyte using a dose response multi-cycle kinetic assay with concentrations of the analyte ranging from 0.18 to 45 nM (two-fold dilutions steps) diluted in running buffer. Association and dissociation time were set to 300 s and 720 s, respectively. The apparent dissociation (kd) and association (kₐ) rate constants and the apparent dissociation equilibrium constant (KD) were calculated using one-to-one Langmuir binding model. Affinity to CD137 of the different species was determined using the identical setup as for PDL1 with the exception that CD137-Fc chimeric proteins from different species were captured by the immobilized antibody.

Fc tagged human PD-L1 = target: T2, Fc tagged human PD-L1 (human, UniProt Q9NZQ7 19-238, limits assumed); experiment: SPR (Biacore T200), Fc tagged PDL1 captured by anti-human Fc, molecule as analyte 0.18-45 nM
T2 construct: not shown: Fc tag
Method: as §1

[2] = target: human CD137 expressed on Jurkat cells (human, UniProt Q07011 24-255); experiment: cell-based or functional assay
human serum albumin = target: T3, human serum albumin (human, UniProt P02768 25-609); experiment: SPR (Biacore T200), serum albumin amine-coupled to CM5 chip, pH 5.5
T3 construct: Amine-coupled to a CM5 chip; also called human SA; HSA
Method: Affinity of molecules to serum albumin (SA) of the different species was determined by SPR measurements using a Biacore T200 device (GE Healthcare). SA was directly coupled to a CM5 sensor chip (GE Healthcare) using amine coupling chemistry. […] The assay was run in a 1×PBS-Tween buffer at pH 5.5.

[3] = target: T1, Fc tagged human CD137 (R&D Systems, …); experiment: SPR (Biacore T200), Fc tagged human CD137 captured by anti-human Fc, scFv as analyte
Method: In this experiment, Fc tagged human CD137 (R&D Systems, cat. 838-4B-100) was captured using the Human Antibody Capture kit from GE healthcare (cat. BR-1008-39). After each analyte injection cycle, the anti-human Fc-specific IgG was regenerated and new antigen was captured. The scFvs were injected as analyte using a dose response multi-cycle kinetic assay over the captured CD137 with concentrations of the analyte ranging from 0.19 to 45 nM (three-fold dilutions steps) diluted in running buffer. Association and dissociation time were set to 300 s and 720 s, respectively. The obtained sensorgrams were fitted using the 1:1 binding model.

[4] = target: CD137 (form used for the alanine mutants of PRO1359 not stated) (Homo sapiens (Human), UniProt Q07011 24-186, limits assumed); experiment: assay not described

B2: PRO1480 (other)
chain: DIQMTQSPASLSASVGDRVTITCQASQSIGTYLAWYQQKPGKPPKLLIYRAFILASGVPSRFSGSGSGTDFTLTISSLQPEDFATYYCQSNFYSDSTTIGPNAFGTGTKVTVLGGGGGSEVQLVESGGGLVQPGGSLRLSCAASGFSFSANYYPCWVRQAPGKGLEWIGCIYGGSSDITYDANWTKGRFTISRDNSKNTVYLQMNSLRAEDTAVYYCARSAWYSGWGGDLWGQGTLVTVSSGGGGSGGGGSGGGGSGGGGSIQMTQSPSSLSASVGDRVTITCQASQSISNRLAWYQQKPGKAPKLLIYSASTLASGVPSRFSGSGSGTDFTLTISSLQPEDFATYYCQSTYYGNDGNAFGTGTKVTVLGGGGGSEVQLVESGGGLVQPGGSLRLSCAASGFSFNSDYWIYWVRQAPGKGLEWIASIYGGSSGNTQYASWAQGRFTISRDNSKNTVYLQMNSLRAEDTAVYFCARGYVDYGGATDLWGQGTLVTVSSGGGGSGGGGSIQMTQSPSSLSASVGDRVTITCQSSESVYSNNQLSWYQQKPGQPPKLLIYDASDLASGVPSRFSGSGSGTDFTLTISSLQPEDFATYYCAGGFSSSSDTAFGGGTKLTVLGGGGGSGGGGSGGGGSGGGGSEVQLVESGGGLVQPGGSLRLSCAASGFSLSSNAMGWVRQAPGKGLEYIGIISVGGFTYYASWAKGRFTISRDNSKNTVYLQMNSLRAEDTATYFCARDRHGGDSSGAFYLWGQGTLVTVSS
notes: Trispecific scDb-scFv; CD137 arm derived from 38-27-A11 sc02; also called PRO1480 (38-27-A11); trispecific anti-PDL1xCD137xHSA scDb-scFv
IC50 (ng/ml), activation of NF-kB reporter gene, HCC827 + IFNg, 6 h, with HSA [2]: 6.44 ng/mL
IC50 (ng/ml), activation of NF-kB reporter gene, HCC827 + IFNg, 24 h, with HSA [2]: 4.67 ng/mL
Kd (human serum albumin): 1.03 nM
koff (human serum albumin): 0.000337 s⁻¹
Kd (Fc tagged human PD-L1): 0.015 nM
koff (Fc tagged human PD-L1): 5.1e-05 s⁻¹

B3: PRO1481 (other)
chain: DIQMTQSPASLSASVGDRVTITCQASQSIGTYLAWYQQKPGKPPKLLIYRAFILASGVPSRFSGSGSGTDFTLTISSLQPEDFATYYCQSNFYSDSTTIGPNAFGTGTKVTVLGGGGGSESQLVESGGGLVQPGGSLRLSCAASGFSFSANYYPCWVRQAPGKGLEWIGCIYGGSSDITYDANWTKGRFTISRDNSKNTVYLQMNSLRAEDTAVYFCARSAWYSGWGGDLWGPGTLVTVSSGGGGSGGGGSGGGGSGGGGSFQLTQSPSSLSASVGDRVTITCQASQSISNRLAWYQQKPGKPPKLLIYSASTLASGVPSRFSGSGSGTDFTLTISSLQPEDFATYYCQSTYYGNDGNAFGTGTKVTVLGGGGGSEVQLVESGGGLVQPGGSLRLSCAASGFSFNSDYWIYWVRQAPGKGLEWIASIYGGSSGNTQYASWAQGRFTISRDNSKNTVYLQMNSLRAEDTAVYFCARGYVDYGGATDLWGQGTLVTVSSGGGGSGGGGSIQMTQSPSSLSASVGDRVTITCQSSESVYSNNQLSWYQQKPGQPPKLLIYDASDLASGVPSRFSGSGSGTDFTLTISSLQPEDFATYYCAGGFSSSSDTAFGGGTKLTVLGGGGGSGGGGSGGGGSGGGGSEVQLVESGGGLVQPGGSLRLSCAASGFSLSSNAMGWVRQAPGKGLEYIGIISVGGFTYYASWAKGRFTISRDNSKNTVYLQMNSLRAEDTATYFCARDRHGGDSSGAFYLWGQGTLVTVSS
notes: Trispecific scDb-scFv; CD137 arm derived from 38-27-A11 sc03
IC50 (ng/ml), activation of NF-kB reporter gene, HCC827 + IFNg, 6 h, with HSA [2]: 7.22 ng/mL
IC50 (ng/ml), activation of NF-kB reporter gene, HCC827 + IFNg, 24 h, with HSA [2]: 5.51 ng/mL
koff (Fc tagged human PD-L1): 4.3e-05 s⁻¹

B4: PRO1186 (other)
chain: DIQMTQSPSSLSASVGDRVTITCQASQSIGTYLAWYQQKPGKAPKLLIYRAFILASGVPSRFSGSGSGTDFTLTISSLQPEDFATYYCQSNFYSDSTTIGPNAFGTGTKVTVLGGGGGSQVQLQESGPGLVKPSETLSLTCKVSGFSFSNSYWICWIRQPPGKGLEWIGCTFVGSSDSTYYANWAKGRVTISVDSSKNQFSLKLSSVTAADTAVYYCARHPSDAVYGYANNLWGQGTLVTVSSGGGGSGGGGSGGGGSGGGGSDIQMTQSPSSLSASVGDRVTITCQASQSINNVLAWYQQKPGKAPKLLIYRASTLASGVPSRFSGSGSGTDFTLTISSLQPEDFATYYCQSSYGNYGDFGTGTKVTVLGGGGGSQVQLQESGPGLVKPSETLSLTCKVSGFSFNSDYWIYWIRQPPGKGLEWIGSIYGGSSGNTQYASWAQGRVTISVDSSKNQFSLKLSSVTAADTAVYYCARGYVDYGGATDLWGQGTLVTVSSGGGGSGGGGSVVMTQSPSSLSASVGDRVTITCQASQIISSRSAWYQQKPGQPPKLLIYQASKLASGVPSRFSGSGSGTDFTLTISSLQPEDFATYYCQCTYIDSNFGAFGGGTKLTVLGGGGGSGGGGSGGGGSGGGGSEVQLVESGGGLVQPGGSLRLSCAASGFSFSSSYWICWVRQAPGKGLEWVGCVFTGDGTTYYASWAKGRFTISRDNSKNTVYLQMNSLRAEDTATYFCARPVSVYYYGMDLWGQGTLVTVSS
notes: Trispecific scDb-scFv with a different anti-CD137 domain; also called PR01186
kon [1]: 190000 M⁻¹ s⁻¹

B5: PRO1704 (38-27-A11 sc07) (scFv)
scFv: DIQMTQSPSSLSASVGDRVTITCQASQSISNRLAWYQQKPGKAPKLLIYSASTLASGVPSRFSGSGSGTDFTLTISSLQPEDFATYYCQSTYYGNDGNAFGCGTKVTVLGGGGGSGGGGSGGGGSGGGGSEVQLVESGGGLVQPGGSLRLSCAASGFSFSANYYPCWVRQAPGKCLEWIGCIYGGSSDITYDANWTKGRFTISRDNSKNTVYLQMNSLRAEDTAVYYCARSAWYSGWGGDLWGQGTLVTVSS
notes: VL-linker-VH, CDR graft with interdomain disulfide (VL-T141C)
Kd [3]: 3.07 nM
koff [3]: 0.00353 s⁻¹
kon [3]: 1.15e+06 M⁻¹ s⁻¹

Second part, the binder after the results:

Kd [1]: 3.2 nM
Kd (Fc tagged human PD-L1): 0.065 nM
B1: PRO885 (bispecific antibody)
chain: DIQMTQSPSSLSASVGDRVTITCQASQSINDYLAWYQQKPGKAPKLLIYKASTLASGVPSRFSGSGSGTDFTLTISSLQPEDFATYYCQQGYIITDIDNVFGTGTKVTVLGGGGGSQVQLQESGPGLVKPSETLSLTCKVSGFSFSNSYWICWIRQPPGKGLEWIGCTFVGSSDSTYYANWAKGRVTISVDSSKNQFSLKLSSVTAADTAVYYCARHPSDAVYGYANNLWGQGTLVTVSSGGGGSGGGGSGGGGSGGGGSIQMTQSPSSLSASVGDRVTITCQASQSINNVLAWYQQKPGKAPKLLIYRASTLASGVPSRFSGSGSGTDFTLTISSLQPEDFATYYCQSSYGNYGDFGTGTKVTVLGGGGGSQVQLQESGPGLVKPSETLSLTCKVSGFSFSSGYDMCWIRQPPGKGLEWIGCVVAGSVDITYYASWAKGRVTISVDSSKNQFSLKLSSVTAADTAVYYCARKDAYSDAFNLWGQGTLVTVSS

fold reduction of affinity against unmutated PRO1359 [4]: > 1000 fold
B6: PRO1359 with TRP 233 mutated to alanine (scFv)
scFv: DIQMTQSPSSLSASVGDRVTITCQASQSISNRLAWYQQKPGKAPKLLIYSASTLASGVPSRFSGSGSGTDFTLTISSLQPEDFATYYCQSTYYGNDGNAFGTGTKVTVLGGGGGSGGGGSGGGGSGGGGSEVQLVESGGGLVQPGGSLRLSCAASGFSFSANYYPCWVRQAPGKGLEWIGCIYGGSSDITYDANWTKGRFTISRDNSKNTVYLQMNSLRAEDTAVYYCARSAAYSGWGGDLWGQGTLVTVSS

fold reduction of affinity against unmutated PRO1359 [4]: > 1000 fold
B7: PRO1359 with TYR 191 mutated to alanine (scFv)
scFv: DIQMTQSPSSLSASVGDRVTITCQASQSISNRLAWYQQKPGKAPKLLIYSASTLASGVPSRFSGSGSGTDFTLTISSLQPEDFATYYCQSTYYGNDGNAFGTGTKVTVLGGGGGSGGGGSGGGGSGGGGSEVQLVESGGGLVQPGGSLRLSCAASGFSFSANYYPCWVRQAPGKGLEWIGCIYGGSSDITADANWTKGRFTISRDNSKNTVYLQMNSLRAEDTAVYYCARSAWYSGWGGDLWGQGTLVTVSS
